Experiments:
[1] = target: dynamic microtubules grown from coverslip-anchored biotinylated GMPcPP seeds (bovine brain tubulin) (bovine) (UniProt Q6B856); test: laser trap bidirectional sliding friction assay; beads decorated sparsely with native kinetochore particles on the sides of coverslip-anchored dynamic microtubules; constant force 0.5-3 pN along the axis, direction reversed periodically; speeds at 1 ± 0.5 pN
[2] = target: dynamic microtubules grown from coverslip-anchored biotinylated GMPcPP seeds (bovine brain tubulin) (bovine) (UniProt Q6B856); test: laser trap rupture force assay; kinetochore particles sparsely on anti-His polystyrene beads, attached near the tips of dynamic microtubules grown from coverslip-anchored seeds; preload about 1 pN, then force ramp 0.25 pN/s until detachment; growth buffer (BRB80, 1 mM GTP, tubulin)
[3] = target: dynamic microtubules grown from coverslip-anchored biotinylated GMPcPP seeds (bovine brain tubulin) (bovine) (UniProt Q6B856); test: laser trap bidirectional sliding friction assay; anti-His beads densely coated with recombinant Ndc80c (about 3,000 complexes a bead, not single-molecule conditions) on the sides of coverslip-anchored dynamic microtubules; constant force along the axis, direction reversed; speeds at 1 ± 0.5 pN

Row | Substance | mean sliding speed of side-attached beads under 1 pN toward the minus end [1] | mean sliding speed of side-attached beads under 1 pN toward the plus end [1] | mean rupture strength at microtubule minus ends [2] | mean rupture strength at microtubule plus ends [2] | mean sliding speed of side-attached beads under 1 pN toward the minus end [3] | mean sliding speed of side-attached beads under 1 pN toward the plus end [3]
1 | native kinetochore particles isolated from yeast (Dsn1-6His-3Flag) (from UniProt P40568 1-576) (complex) | 674 nm·s^-1 | 109 nm·s^-1 | 3.3 pN | 9.7 pN | – | –
2 | recombinant human Ndc80 complex (from UniProt O14777 1-642; Q9BZD4 1-464; Q8NBT2 1-197; Q9HBM1 1-224) | – | – | – | – | 464 nm·s^-1 | 130 nm·s^-1
